One data set deals with T1, EcoRII-N (His-tagged) (UniProt P14633 1-180).
T1 sequence: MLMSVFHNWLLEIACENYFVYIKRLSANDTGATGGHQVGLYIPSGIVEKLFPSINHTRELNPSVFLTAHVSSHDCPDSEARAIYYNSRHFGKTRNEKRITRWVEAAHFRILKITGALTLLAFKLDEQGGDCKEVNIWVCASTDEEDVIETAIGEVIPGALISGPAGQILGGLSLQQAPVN
Description: EMSA.

The target of the next data set is T2, EcoRII-C (UniProt P14633 183-404).
T2 sequence: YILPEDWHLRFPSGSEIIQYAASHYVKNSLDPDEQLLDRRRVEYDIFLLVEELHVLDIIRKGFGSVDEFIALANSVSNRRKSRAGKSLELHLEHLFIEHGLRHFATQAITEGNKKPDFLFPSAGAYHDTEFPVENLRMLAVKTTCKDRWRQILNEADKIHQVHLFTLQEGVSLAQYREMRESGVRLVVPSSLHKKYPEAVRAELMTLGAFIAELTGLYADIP
Kind of data set: EMSA. For orientation: Mobility shift assays separate free from complexed probe on a gel.

B1: HM(A) 16-mer (dsDNA)
DNA 1: CGTAGCCTGGTCGATC
DNA 2: GATCGACCAGGCTACG
modifications: 5-methylcytosine at strand 2 position 8 (second C of CCAGG)
Regarding B1, in the data set with EcoRII-N (His-tagged), the binding result is on record as “no binding”.

B2: T/2 25-mer (dsDNA)
DNA 1: CGCACGACTTCCTGGAAGAGCACGC
DNA 2: GCGTGCTCTTCCAGGAAGTCGTGCG
modifications: strand 2 position 13 is 2-aminopurine (written A) replacing central A
In the case of B2, in the data set with EcoRII-N (His-tagged), the binding result was “no binding”.

B3: DM 16-mer (dsDNA)
DNA 1: CGTAGCCTGGTCGATC
DNA 2: GATCGACCAGGCTACG
modifications: 5-methylcytosine at strand 1 position 7 and strand 2 position 8
B3: the binding result with EcoRII-C was “no binding”.

B4: HM(T) 16-mer (dsDNA)
DNA 1: CGTAGCCTGGTCGATC
DNA 2: GATCGACCAGGCTACG
modifications: 5-methylcytosine at strand 1 position 7 (second C of CCTGG)
In the case of B4, the binding result in the data set with EcoRII-N (His-tagged) was “no binding”.

Values taken from article PMC2770665.
